The values that follow come from US20230285581A1.

Experiment [1] addresses endogenously expressed human MSR1 on PMA-treated THP-1 cells (human) (UniProt P21757). The experiment in a line: ECL cell binding, PMA-treated THP-1 cells.
Experiment [2] deals with full length monkey MSR1 on HEK293.mfMSR1 cells (Macaca fascicularis). The experiment in a line: ECL cell binding, HEK293.mfMSR1 cells.
Experiment [3] addresses mouse MSR1 on RAW264.7 cells (mouse) (UniProt P30204). The experiment in a line: flow cytometry, RAW264.7 cells, 10 ug/mL. A general note: A flow cytometer gives signals particle by particle.
The target in experiment [4] is human MSR1 extracellular domain expressed with a N-terminal nonahistidine tag (His9-hMSR1; R&D Systems, Cat #2708-MS) (human) (UniProt P21757). Briefly: competition ELISA; 100 nM antibody, competitor Ac-LDL, plate-coated His9-hMSR1. (In general: ELISA stands for enzyme-linked immunosorbent assay.)
Chain of human MSR1 extracellular domain expressed with a N-terminal nonahistidine tag (His9-hMSR1; R&D Systems, Cat #2708-MS) (human) (P21757 other isoform, or with tags, fused parts or gaps): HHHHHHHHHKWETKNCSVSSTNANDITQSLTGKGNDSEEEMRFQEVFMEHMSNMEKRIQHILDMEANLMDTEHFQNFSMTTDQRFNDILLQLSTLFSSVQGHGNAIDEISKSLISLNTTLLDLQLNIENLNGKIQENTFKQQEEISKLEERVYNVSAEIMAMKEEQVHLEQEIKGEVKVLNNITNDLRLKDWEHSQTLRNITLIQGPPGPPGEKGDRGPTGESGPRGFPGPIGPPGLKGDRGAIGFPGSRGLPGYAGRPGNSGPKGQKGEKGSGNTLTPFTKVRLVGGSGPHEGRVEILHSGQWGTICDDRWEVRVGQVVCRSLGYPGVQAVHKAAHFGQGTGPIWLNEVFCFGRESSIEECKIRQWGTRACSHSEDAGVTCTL
Experiment [5] concerns the target full length human MSR1 with a C-terminal Myc tag on HEK293.Myc.hMSR1 cells (human) (UniProt P21757). The experiment in a line: ECL cell binding, HEK293.Myc.hMSR1 cells.
In experiment [6] the target is human MSR1 extracellular domain expressed with a N-terminal nonahistidine tag (His9-hMSR1; R&D Systems, Cat #2708-MS) (human) (UniProt P21757). Briefly: competition ELISA; 500 nM antibody, competitor 10 nM Ox-LDL, plate-coated His9-hMSR1.
The target is the same in experiment [7]. Briefly: competition ELISA; 300 nM antibody, competitor biot-AGE-BSA, plate-coated His9-hMSR1.
Experiment [8] has the same target. Briefly: competition ELISA; 1 µM antibody, competitor 10 nM Ox-LDL, plate-coated His9-hMSR1.

Chain of mouse MSR1 on RAW264.7 cells (mouse) (P30204 whole entry, the tested form may be a part): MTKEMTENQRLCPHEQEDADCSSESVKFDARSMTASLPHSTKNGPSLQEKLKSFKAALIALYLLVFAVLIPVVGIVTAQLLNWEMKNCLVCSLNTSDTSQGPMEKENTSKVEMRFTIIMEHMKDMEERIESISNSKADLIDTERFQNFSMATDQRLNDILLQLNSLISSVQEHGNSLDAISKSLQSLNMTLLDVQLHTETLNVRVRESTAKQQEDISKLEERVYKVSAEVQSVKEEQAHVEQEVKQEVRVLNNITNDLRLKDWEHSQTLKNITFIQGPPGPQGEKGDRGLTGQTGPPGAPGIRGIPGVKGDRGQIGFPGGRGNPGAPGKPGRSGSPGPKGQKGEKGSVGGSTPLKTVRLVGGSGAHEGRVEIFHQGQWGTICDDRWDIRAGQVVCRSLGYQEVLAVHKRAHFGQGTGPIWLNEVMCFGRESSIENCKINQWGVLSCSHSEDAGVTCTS
Chain of endogenously expressed human MSR1 on PMA-treated THP-1 cells (human) (P21757 whole entry): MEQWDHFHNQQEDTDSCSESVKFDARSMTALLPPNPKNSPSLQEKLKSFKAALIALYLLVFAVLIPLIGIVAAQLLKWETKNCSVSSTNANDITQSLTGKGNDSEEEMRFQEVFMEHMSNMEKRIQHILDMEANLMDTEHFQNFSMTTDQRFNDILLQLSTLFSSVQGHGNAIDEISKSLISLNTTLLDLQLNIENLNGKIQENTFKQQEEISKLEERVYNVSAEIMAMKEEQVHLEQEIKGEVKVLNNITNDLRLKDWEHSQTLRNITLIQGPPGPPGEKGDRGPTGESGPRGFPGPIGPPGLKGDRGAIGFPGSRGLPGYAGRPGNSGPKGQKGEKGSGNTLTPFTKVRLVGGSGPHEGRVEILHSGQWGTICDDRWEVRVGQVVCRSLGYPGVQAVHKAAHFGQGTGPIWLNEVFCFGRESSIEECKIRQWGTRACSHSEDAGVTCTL
Chain of full length human MSR1 with a C-terminal Myc tag on HEK293.Myc.hMSR1 cells (human) (P21757 whole entry, the tested form may be a part): as the sequence (P21757 whole entry) above
Chain of full length monkey MSR1 on HEK293.mfMSR1 cells (Macaca fascicularis) (chain, as listed by the source): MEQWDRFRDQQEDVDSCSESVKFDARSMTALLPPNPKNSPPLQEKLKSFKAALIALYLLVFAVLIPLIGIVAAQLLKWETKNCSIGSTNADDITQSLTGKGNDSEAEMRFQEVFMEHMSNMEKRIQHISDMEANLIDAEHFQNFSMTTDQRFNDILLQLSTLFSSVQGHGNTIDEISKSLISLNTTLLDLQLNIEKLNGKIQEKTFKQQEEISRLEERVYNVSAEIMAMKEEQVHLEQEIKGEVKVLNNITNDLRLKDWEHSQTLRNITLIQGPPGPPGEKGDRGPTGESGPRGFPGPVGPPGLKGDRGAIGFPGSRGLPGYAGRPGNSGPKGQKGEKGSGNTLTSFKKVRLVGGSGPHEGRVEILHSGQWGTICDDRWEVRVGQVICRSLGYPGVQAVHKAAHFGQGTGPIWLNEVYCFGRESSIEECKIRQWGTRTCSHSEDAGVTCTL

B1: H1H21231N-N297Q (antibody, human IgG1, V domains shown)
VH: EVQLVESGGGLVQPGGSLRLSCAASGFTFSDHYMDWVRQAPGKGLEWVGRTRNKANSHTTEYTASVTGRFTISRDDSRNSLYLQMNSLKTEDTAVYYCVRAGIIGTLFDYWGQGTLVTVSS
VL: DIQMTQFPSSLSASVGDRVTITCRASQSISSFLNWFQQKPGKAPKFLIYAASSLQSGVPSRFSGSGSGTDFTLTISSLQPEDFATYYCQQSYSSPPITFGQGTRLEIKR
In the case of B1, the ratio of 11 nM antibody binding signal (RLU) to isotype control in experiment [1] is 45; in experiment [2], 69; in experiment [5] it was 64. In addition, the MFI in experiment [3] was 3580. The same molecule came in with a S/N in experiment [3] of 1. Further, the % Blocking in experiment [4] was -60%; in experiment [6] it was 26%; in experiment [7] it was -50%.

B2: H1H27734P-N297Q (antibody, human IgG1, V domains shown)
VH: EVQLVESRGGLVQPGGSLRLSCAASGFTFSSYAMSWVRQAPGKGLEWVSAISGSGGSTFYADSVKGRFTISRDNSKNTVYLQMNSLRAEDTAVYYCAKALVLRFLEWLGDYWGQGTLVTVSS
VL: DIQMTQSPSTLSASVGDRVTITCRASQSISSWLAWFQQKPGKAPKLLIYKASSLESGVPSRFSGSGSGTEFTLTISSLQPDDFATYYCQQYKSYWTFGQGTKVEIKR
As for B2, the ratio of 11 nM antibody binding signal (RLU) to isotype control was 21 in experiment [1], 28 in experiment [2] and 40 in experiment [5]. This molecule also returned an MFI in experiment [3] of 4780. In experiment [3], this molecule showed a S/N of 1. Also, the % Blocking in experiment [4] is -38%; in experiment [8] it was -15%; in experiment [7], -4%.

B3: H1H27729P-N297Q (antibody, human IgG1, V domains shown)
VH: QVQLVESGGGLVKPGGSLRLSCAASGFIFSDYYMSWIRQAPGKGLEWVSYISSSGTTIYGDSVKGRFTMSRDNAKNSLYLQMNSLRAEDTAVYYCARNYALFDYWGQGTLVTVSS
VL: DIQMTQSPSSLSASVGDRVTITCQASQDISKYLNWYQQKPGKAPKLLIYYTSNLETGVPSRFSGSGSGTDFTFTISSLQPEDIATYYCHQSDYLPFTFGPGTKVDIKR
For the molecule B3, the ratio of 11 nM antibody binding signal (RLU) to isotype control in experiment [1] was determined as 8; in experiment [2] it was 6; in experiment [5], 17. The MFI in experiment [3] turned out to be 3480. The S/N in experiment [3] is 1. For the same molecule, the % Blocking in experiment [4] was 8%; in experiment [8], 36%; in experiment [7], 15%.

B4: H1H27739P-N297Q (antibody, human IgG1, V domains shown)
VH: EVQLVESGGGLVQPGGSLRLSCTASGFTFSSYAMSWVRQAPGKGLEWVSAISGTGSSTYFTDSVKGRFAISRDNSKNTLYLQMNSLRAEDTAVYYCAKDGEWLSTVTLFDYWGQGTLVTVSS
VL: EIVMTQSPATLSVSPGERATLSCRASQSVSSNLAWYQQKPGQAPRLLIYGASTRATGIPARFSGSGSGTDFTLTISSLQSEDFALYYCQQYFIWPPHPTFGPGTKVDIKR
Regarding B4, the ratio of 11 nM antibody binding signal (RLU) to isotype control was determined as 9 in experiment [1], 20 in experiment [2] and 22 in experiment [5]. The molecule further gave an MFI in experiment [3] of 3270. In experiment [3], the S/N amounted to 1. The % Blocking in experiment [4] is -47%; in experiment [8], -41%; in experiment [7] it was -9%.

B5: H1H21234N-N297Q (antibody, human IgG1, V domains shown)
VH: QVQLQESGPGLVKPSETLSLTCTVTGGSISRNYWSWIRQPPGKGLEWIGYIYYSGSIDYNPSLKSRVTISVDTSKNQFSLKLSSMTAADTAVYYCARDRWNWKYGMDVWGQGTTVIVSS
VL: EIVLTQSPGTLSLSPGERATLSCRASQTVRNNYLAWYHQKPGQAPRLLIYGASSRATGIPDRFSGSGSGTDFTLTISRLEPEDFTVYYCHQYGNSPWTFGQGTKMEIKR
Regarding B5, the ratio of 11 nM antibody binding signal (RLU) to isotype control in experiment [1] was 25; in experiment [2] it was 35; in experiment [5], 43. The same molecule came in with an MFI in experiment [3] of 7050. Further, the S/N in experiment [3] is 3. Further, the figures for the % Blocking in experiment [4], in experiment [6] and in experiment [7] were 75%, 49% and -27%, respectively.
